Measured values published in paper PMC9352680, “A comprehensive thermodynamic model for RNA binding by the Saccharomyces cerevisiae Pumilio protein PUF4”.

T1: PUF4 RNA-binding domain (Saccharomyces cerevisiae, UniProt P25339 537-888)
T1 sequence: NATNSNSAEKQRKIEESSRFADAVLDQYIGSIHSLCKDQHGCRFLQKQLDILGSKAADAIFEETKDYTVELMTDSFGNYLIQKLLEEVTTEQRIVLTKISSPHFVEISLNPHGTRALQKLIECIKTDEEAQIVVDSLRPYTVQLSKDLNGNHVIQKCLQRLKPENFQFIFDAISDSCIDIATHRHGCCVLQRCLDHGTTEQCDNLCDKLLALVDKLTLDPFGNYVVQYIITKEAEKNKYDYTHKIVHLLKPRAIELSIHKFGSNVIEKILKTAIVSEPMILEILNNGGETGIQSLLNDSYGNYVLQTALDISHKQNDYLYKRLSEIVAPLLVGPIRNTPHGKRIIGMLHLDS


Target: T1, PUF4 RNA-binding domain
Assay: Mg; RNA-MaP; 20 mM Na-HEPES pH 7.4, 30 mM KOAc, 0.75 mM MgCl2, 0.1% Tween-20, 5% glycerol, 0.1 mg/mL BSA, 2 mM DTT; 25 C; 0.0125-409.6 nM protein
Conditions: tags: N-His6-TEV cleaved; C-SNAP kept, Cy3B-labelled; label: tethered on chip by stalled RNA polymerase

Binder	Kd [nM]
UCUCUUAUCUGUAUAUAUAUCUCUU (ssRNA) [Id_i_S1_P3E.5_K3.1_C3.3_[T-3A]_[C-2T]_[T-1C]_H3.1_A3.1_F3.1_T3.2]	6.91
UCUCUUAACUGUAUAUAUAUCUCUU (ssRNA) [Id_i_S1_P3E.5_K3.1_C3.3_[T-3A]_[C-2A]_[T-1C]_H3.1_A3.1_F3.1_T3.2]	6.08
UCUCUUAAAUGUAUAUAUAUCUCUU (ssRNA) [Id_i_S1_P3E.5_K3.1_C3.3_[T-3A]_[C-2A]_[T-1A]_H3.1_A3.1_F3.1_T3.2]	10.3
UCUCUUGUCUAUAUAUAUAUCUCUU (ssRNA) [Id_i_S1_P3E.6_K3.2_C3.3_[T-3G]_[C-2T]_[T-1C]_H3.2_A3.1_F3.1_T3.2]	102
UCUCUUGACUAUAUAUAUAUCUCUU (ssRNA) [Id_i_S1_P3E.6_K3.2_C3.3_[T-3G]_[C-2A]_[T-1C]_H3.2_A3.1_F3.1_T3.2]	806
UCUCUUCGCUAUAUAUAUAUCUCUU (ssRNA) [Id_i_S1_P3E.6_K3.2_C3.3_[T-3C]_[C-2G]_[T-1C]_H3.2_A3.1_F3.1_T3.2]	517
UCUCUUUGUAUAAUUUCUCUU (ssRNA) [Ib_S1_P4E.1_K4.1_C4.1_H4.1_A4.1_[T7A]_F4.1_[A9T]_T4.1]	8.41
UCUCUUCUGUAUAUAUAUAUCUCUU (ssRNA) [Id_i_S1_P3E.6_K3.2_C3.3_[T-3C]_[C-2T]_[T-1G]_H3.2_A3.1_F3.1_T3.2]	8.87
UCUCUUCUCUAUAUAUAUAUCUCUU (ssRNA) [Id_i_S1_P3E.6_K3.2_C3.3_[T-3C]_[C-2T]_[T-1C]_H3.2_A3.1_F3.1_T3.2]	389
UCUCUUCUAUAUAUAUAUAUCUCUU (ssRNA) [Id_i_S1_P3E.6_K3.2_C3.3_[T-3C]_[C-2T]_[T-1A]_H3.2_A3.1_F3.1_T3.2]	341
UCUCUUCACUAUAUAUAUAUCUCUU (ssRNA) [Id_i_S1_P3E.6_K3.2_C3.3_[T-3C]_[C-2A]_[T-1C]_H3.2_A3.1_F3.1_T3.2]	144
UCUCUUCAAUAUAUAUAUAUCUCUU (ssRNA) [Id_i_S1_P3E.6_K3.2_C3.3_[T-3C]_[C-2A]_[T-1A]_H3.2_A3.1_F3.1_T3.2]	777
UCUCUUAGCUAUAUAUAUAUCUCUU (ssRNA) [Id_i_S1_P3E.6_K3.2_C3.3_[T-3A]_[C-2G]_[T-1C]_H3.2_A3.1_F3.1_T3.2]	805
UCUCUUAUCUAUAUAUAUAUCUCUU (ssRNA) [Id_i_S1_P3E.6_K3.2_C3.3_[T-3A]_[C-2T]_[T-1C]_H3.2_A3.1_F3.1_T3.2]	650
UCUCUUAAAUAUAUAUAUAUCUCUU (ssRNA) [Id_i_S1_P3E.6_K3.2_C3.3_[T-3A]_[C-2A]_[T-1A]_H3.2_A3.1_F3.1_T3.2]	1040
UCUCUUGGCACACUAUAUAUCUCUU (ssRNA) [Id_i_S1_P3E.7_K3.3_C3.3_[T-3G]_[C-2G]_[T-1C]_H3.3_A3.1_F3.1_T3.2]	821
UCUCUUGUCACACUAUAUAUCUCUU (ssRNA) [Id_i_S1_P3E.7_K3.3_C3.3_[T-3G]_[C-2T]_[T-1C]_H3.3_A3.1_F3.1_T3.2]	39
UCUCUUGCUAUAUUAUCUCUU (ssRNA) [Ib_S1_P4E.1_K4.1_C4.1_H4.1_[T1G]_[G2C]_A4.1_F4.1_T4.1]	481
UCUCUUCUCACACUAUAUAUCUCUU (ssRNA) [Id_i_S1_P3E.7_K3.3_C3.3_[T-3C]_[C-2T]_[T-1C]_H3.3_A3.1_F3.1_T3.2]	> 2300
UCUCUUCUAACACUAUAUAUCUCUU (ssRNA) [Id_i_S1_P3E.7_K3.3_C3.3_[T-3C]_[C-2T]_[T-1A]_H3.3_A3.1_F3.1_T3.2]	> 2300
UCUCUUCAAACACUAUAUAUCUCUU (ssRNA) [Id_i_S1_P3E.7_K3.3_C3.3_[T-3C]_[C-2A]_[T-1A]_H3.3_A3.1_F3.1_T3.2]	2040
UCUCUUAGCACACUAUAUAUCUCUU (ssRNA) [Id_i_S1_P3E.7_K3.3_C3.3_[T-3A]_[C-2G]_[T-1C]_H3.3_A3.1_F3.1_T3.2]	> 2300
UCUCUUAUCACACUAUAUAUCUCUU (ssRNA) [Id_i_S1_P3E.7_K3.3_C3.3_[T-3A]_[C-2T]_[T-1C]_H3.3_A3.1_F3.1_T3.2]	1520
UCUCUUAACACACUAUAUAUCUCUU (ssRNA) [Id_i_S1_P3E.7_K3.3_C3.3_[T-3A]_[C-2A]_[T-1C]_H3.3_A3.1_F3.1_T3.2]	2180
UCUCUUAAAACACUAUAUAUCUCUU (ssRNA) [Id_i_S1_P3E.7_K3.3_C3.3_[T-3A]_[C-2A]_[T-1A]_H3.3_A3.1_F3.1_T3.2]	2250
Id_ii_S2_P3E.2_K3.1_C3.2_[C-2T]_[T-1G]_H3.1_A3.1_F3.1_T3.2 (ssRNA) RNA: UUUGAUUAAUAUGAUAUCGUUCUUUCUUGUGUAUAUAUAUUCUUUCUCGAUAUCAUAUUAAUCUUU	1.57

Binder	Kd [nM]
Id_i_S2_P3E.2_K3.1_C3.2_[C-2T]_[T-1C]_H3.1_A3.1_F3.1_T3.2 (ssRNA) RNA: UUUGAUUAAUAUGAUAUCGUUCUUUCUUCUGUAUAUAUAUUCUUUCUCGAUAUCAUAUUAAUCUUU	1.18
Id_i_S2_P3E.2_K3.1_C3.2_[C-2T]_[T-1A]_H3.1_A3.1_F3.1_T3.2 (ssRNA) RNA: UUUGAUUAAUAUGAUAUCGUUCUUUCUUAUGUAUAUAUAUUCUUUCUCGAUAUCAUAUUAAUCUUU	4.51
UCUCUUGUUAUAUUAUCUCUU (ssRNA) [Ib_S1_P4E.1_K4.1_C4.1_H4.1_[T1G]_[G2T]_A4.1_F4.1_T4.1]	12.3
Id_ii_S2_P3E.2_K3.1_C3.2_[C-2A]_[T-1C]_H3.1_A3.1_F3.1_T3.2 (ssRNA) RNA: UUUGAUUAAUAUGAUAUCGUUCUUUCUACUGUAUAUAUAUUCUUUCUCGAUAUCAUAUUAAUCUUU	1.6
Id_ii_S2_P3E.3_K3.2_C3.2_[C-2T]_[T-1C]_H3.2_A3.1_F3.1_T3.2 (ssRNA) RNA: UUUGAUUAAUAUGAUAUCGUUCUUUCUUCUAUAUAUAUAUUCUUUCUCGAUAUCAUAUUAAUCUUU	71.4
Id_i_S2_P3E.3_K3.2_C3.2_[C-2T]_[T-1A]_H3.2_A3.1_F3.1_T3.2 (ssRNA) RNA: UUUGAUUAAUAUGAUAUCGUUCUUUCUUAUAUAUAUAUAUUCUUUCUCGAUAUCAUAUUAAUCUUU	560
Id_ii_S2_P3E.3_K3.2_C3.2_[C-2A]_[T-1C]_H3.2_A3.1_F3.1_T3.2 (ssRNA) RNA: UUUGAUUAAUAUGAUAUCGUUCUUUCUACUAUAUAUAUAUUCUUUCUCGAUAUCAUAUUAAUCUUU	66.8
Id_ii_S2_P3E.4_K3.3_C3.2_[C-2T]_[T-1C]_H3.3_A3.1_F3.1_T3.2 (ssRNA) RNA: UUUGAUUAAUAUGAUAUCGUUCUUUCUUCACACUAUAUAUUCUUUCUCGAUAUCAUAUUAAUCUUU	222
Id_ii_S2_P3E.4_K3.3_C3.2_[C-2T]_[T-1A]_H3.3_A3.1_F3.1_T3.2 (ssRNA) RNA: UUUGAUUAAUAUGAUAUCGUUCUUUCUUAACACUAUAUAUUCUUUCUCGAUAUCAUAUUAAUCUUU	215
Id_ii_S2_P3E.4_K3.3_C3.2_[C-2A]_[T-1C]_H3.3_A3.1_F3.1_T3.2 (ssRNA) RNA: UUUGAUUAAUAUGAUAUCGUUCUUUCUACACACUAUAUAUUCUUUCUCGAUAUCAUAUUAAUCUUU	242
Id_ii_S2_P3E.4_K3.3_C3.2_[C-2A]_[T-1A]_H3.3_A3.1_F3.1_T3.2 (ssRNA) RNA: UUUGAUUAAUAUGAUAUCGUUCUUUCUAAACACUAUAUAUUCUUUCUCGAUAUCAUAUUAAUCUUU	238
Id_i_S2_P3E.5_K3.1_C3.3_[T-3G]_[C-2T]_[T-1C]_H3.1_A3.1_F3.1_T3.2 (ssRNA) RNA: UUUGAUUAAUAUGAUAUCGUUCUUUCUGUCUGUAUAUAUAUUCUUUCUCGAUAUCAUAUUAAUCUUU	2.83
Id_i_S2_P3E.5_K3.1_C3.3_[T-3C]_[C-2T]_[T-1G]_H3.1_A3.1_F3.1_T3.2 (ssRNA) RNA: UUUGAUUAAUAUGAUAUCGUUCUUUCUCUGUGUAUAUAUAUUCUUUCUCGAUAUCAUAUUAAUCUUU	1.23
UCUCUUCCUAUAUUAUCUCUU (ssRNA) [Ib_S1_P4E.1_K4.1_C4.1_H4.1_[T1C]_[G2C]_A4.1_F4.1_T4.1]	1290
Id_i_S2_P3E.5_K3.1_C3.3_[T-3C]_[C-2T]_[T-1C]_H3.1_A3.1_F3.1_T3.2 (ssRNA) RNA: UUUGAUUAAUAUGAUAUCGUUCUUUCUCUCUGUAUAUAUAUUCUUUCUCGAUAUCAUAUUAAUCUUU	0.917
Id_i_S2_P3E.5_K3.1_C3.3_[T-3C]_[C-2T]_[T-1A]_H3.1_A3.1_F3.1_T3.2 (ssRNA) RNA: UUUGAUUAAUAUGAUAUCGUUCUUUCUCUAUGUAUAUAUAUUCUUUCUCGAUAUCAUAUUAAUCUUU	3.83
Id_i_S2_P3E.5_K3.1_C3.3_[T-3C]_[C-2A]_[T-1C]_H3.1_A3.1_F3.1_T3.2 (ssRNA) RNA: UUUGAUUAAUAUGAUAUCGUUCUUUCUCACUGUAUAUAUAUUCUUUCUCGAUAUCAUAUUAAUCUUU	1.09
Id_i_S2_P3E.5_K3.1_C3.3_[T-3A]_[C-2G]_[T-1C]_H3.1_A3.1_F3.1_T3.2 (ssRNA) RNA: UUUGAUUAAUAUGAUAUCGUUCUUUCUAGCUGUAUAUAUAUUCUUUCUCGAUAUCAUAUUAAUCUUU	2.13
Id_i_S2_P3E.5_K3.1_C3.3_[T-3A]_[C-2T]_[T-1C]_H3.1_A3.1_F3.1_T3.2 (ssRNA) RNA: UUUGAUUAAUAUGAUAUCGUUCUUUCUAUCUGUAUAUAUAUUCUUUCUCGAUAUCAUAUUAAUCUUU	1.7
Id_i_S2_P3E.5_K3.1_C3.3_[T-3A]_[C-2A]_[T-1C]_H3.1_A3.1_F3.1_T3.2 (ssRNA) RNA: UUUGAUUAAUAUGAUAUCGUUCUUUCUAACUGUAUAUAUAUUCUUUCUCGAUAUCAUAUUAAUCUUU	1.39
Id_i_S2_P3E.6_K3.2_C3.3_[T-3G]_[C-2G]_[T-1C]_H3.2_A3.1_F3.1_T3.2 (ssRNA) RNA: UUUGAUUAAUAUGAUAUCGUUCUUUCUGGCUAUAUAUAUAUUCUUUCUCGAUAUCAUAUUAAUCUUU	1300
Id_i_S2_P3E.6_K3.2_C3.3_[T-3C]_[C-2G]_[T-1C]_H3.2_A3.1_F3.1_T3.2 (ssRNA) RNA: UUUGAUUAAUAUGAUAUCGUUCUUUCUCGCUAUAUAUAUAUUCUUUCUCGAUAUCAUAUUAAUCUUU	68.2
Id_i_S2_P3E.6_K3.2_C3.3_[T-3C]_[C-2T]_[T-1C]_H3.2_A3.1_F3.1_T3.2 (ssRNA) RNA: UUUGAUUAAUAUGAUAUCGUUCUUUCUCUCUAUAUAUAUAUUCUUUCUCGAUAUCAUAUUAAUCUUU	35
Id_i_S2_P3E.6_K3.2_C3.3_[T-3C]_[C-2A]_[T-1C]_H3.2_A3.1_F3.1_T3.2 (ssRNA) RNA: UUUGAUUAAUAUGAUAUCGUUCUUUCUCACUAUAUAUAUAUUCUUUCUCGAUAUCAUAUUAAUCUUU	68.5
UCUCUUCUUAUAUUAUCUCUU (ssRNA) [Ib_S1_P4E.1_K4.1_C4.1_H4.1_[T1C]_[G2T]_A4.1_F4.1_T4.1]	685
Id_i_S2_P3E.6_K3.2_C3.3_[T-3A]_[C-2G]_[T-1C]_H3.2_A3.1_F3.1_T3.2 (ssRNA) RNA: UUUGAUUAAUAUGAUAUCGUUCUUUCUAGCUAUAUAUAUAUUCUUUCUCGAUAUCAUAUUAAUCUUU	528
